From the supplement of paper PMC9170038

System: MS2 coat protein
Experiment: apparent KD of MS2 coat protein; designed switch direction (-1 OFF switch, 1 ON switch): -1; higher = weaker reporter binding
Outline: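 Normalised cluster fluorescence was curve-fitted, and each design's median over clusters is its apparent KD. Before this, SNAP-549-labelled MS2 coat protein was titrated from 0.7 or 1.5 nM, doubling to 3 µM, over RNA switches transcribed on Illumina chips by stalled E. coli RNA polymerase. Titrations had no input, 200 uM small-molecule ligand, or an oligonucleotide input, and steps lasted 0.8–1.5 h (lowest) to 10–20 min (highest).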

[1] = input ligand: microRNA oligo, concentration not stated
[2] = Eterna round: R95, input ligand: FMN 200 uM
[3] = Eterna round: R95, input ligand: microRNA oligo, concentration not stated
[4] = Eterna round: R95, input ligand: none

Sequence	apparent KD of MS2 coat protein (input ligand: FMN 200 uM) [nM]	apparent KD of MS2 coat protein (input ligand: none) [nM]	apparent KD of MS2 coat protein [1] [nM]	apparent KD of MS2 coat protein [2] [nM]	apparent KD of MS2 coat protein [3] [nM]	apparent KD of MS2 coat protein [4] [nM]
GAAAAUGUGGAGGAUAUCGACUUCGAAAGAAGUCGAGAAGGCCACACAUGAGGAUCACCCAUGUGAUGCCAAUA [Omei Ex6 H9] (Eterna round: R97, puzzle: Exclusion 6)	443	284				
GAAAAUGUGGAGGAUAUCGACUUCGAAAGAAGUCGAGAAGGCCACACAUGAGGAUCACCCAUGUGUGCCUUAAA [Omei Ex6 H3] (Eterna round: R97, puzzle: Exclusion 6)	23.9	12				
GAAAAUGUGGAGGAUAUCGACUUCGAAAGAAGUCGAGAAGGCCACACAUGAGGAUCACCCAUGUGUUCCUUCAA [Omei Ex6 H2] (Eterna round: R97, puzzle: Exclusion 6)	569	52.2				
GAACAGGUAGGAUAUACUGGACGCGACAUGAGGAUCACCCAUGUCCUCGGCAUAGGCGCUGUAGAAGGGCCUAAAA [Eternabot (Original) Solution 29] (Eterna round: R97, puzzle: Exclusion 5)	29.9	30.2				
GAAGGACGAGGAUAUGUAUGGGACAGCCGAGGAAAAUCUCAACAUGAGGAUCACCCAUGUAGAAGGCGUGCCCG [Eternabot (Original) Solution 44] (Eterna round: R97, puzzle: Exclusion 2)	16.4	14.1				
GAAGUGCACAUGAGGAUCACCCAUGUGGGUGAGCCGUGCCUGAAGGAUAUGGCUCCCGAUGGAGACCAGAAGGUCAGUAAAUAA [Ededor] (Eterna round: R96, puzzle: Exclusion NG 3)	367	1030	276			
GAAUACAAGUAAAGAUCCUACAUGAGGAUCACCCAUGUGCUCGUCUUGUAAAGUACUAUCACGAAAGUGAUAGUACA [Mat - Sensor v3 - turn-off var 1 - Eli Mod - D88] (puzzle: Sensor v3, turn-off variant 1)				53.8	159	47.1
GAAUAGAGAGGAUAUGCAAUGAAGGUAGUACGAUAUAUCUGACAUGAGGAUCACCCAUGUAGAAGGCUCAGAUC [EX2 #8] (Eterna round: R97, puzzle: Exclusion 2)	29.2	29.3				
GAAUAGCAAGCGAGAUCCCACAUGAGGAUCACCCAUGUGCUCGUCUUAUAAAGUACUGUGACGAUAGUCACGGUACA [Mat - Sensor, turn-off var - Eli Mod - D13] (Eterna round: R97, puzzle: Sensor, turn-off variant 1)	16.5	14.9				
GAAUAGCGAGGAUAUACAUGAGGAUCACCCAUGUGAUCCUUAGGCUGUUCAAGCCUAUGUAGAAGGCGCAAAUU [jl-ex3.4.56 ViennaUCT mod] (Eterna round: R97, puzzle: Exclusion 3)	86.2	335				
GAAUGAGAGCAGGAUAUCUUAUAAGUGUAUGAAAGAGAAGGGCUCACAUGAGGAUCACCCAUGUGGUCCUAGAU [jl-ex6-4.86 jandersonlee mod] (Eterna round: R97, puzzle: Exclusion 6)	329	41.7				
GAAUUAGUAGGAUAUACAUGAGGAUCACCCAUGUCUCAAACCAUGUACAGGAGAGGCUGUAGAAGGACUGAACA [Eternabot (Original) Solution 19] (Eterna round: R97, puzzle: Exclusion 3)	36	31.7				
GACCGGACGUGGUCAGGUAACAUGAGGAUCACCCAUGUAGGUCUAGGAACAAGCCUUUUGUAGGCUCGUCUUAUAAA [JR_SV3TOV1_Sub059] (puzzle: Sensor v3, turn-off variant 1)				47.5	36.1	63.6
GACCUCACGGUCAGGAUAUCAGAACGGAAUGCGCAUGAGAAGGGACAUGAGGAUCACCCAUGUGGGCUCGUCGC [Eddionce] (puzzle: Brourd's mod of Exclusion 4)				21.6	13.9	17.9
GACGCUAAAGGAUAUACAUGAGGAUCACCCAUGUUGAGGAAGGUUAGAUGAGGAGUAAGUAGAAGGUUAGACGA [JR_Exclu3_Sub091] (puzzle: Exclusion 3)				32	27.4	30.8
GACUAGGCAGGAUAUACAUGAGGAUCACCCAUGUGUCUGCGUUAAGCACGUGAAGACGGUAGAAGGGCCUACAC [ChP 13.04.2015 #18] (puzzle: Exclusion 3)					13	
GACUCUCCCGUGAGGAUAUAUGAGGCCAUGAUUCCAUAGAAGGCACAUGAGGAUCACCCAUGUCGGGCAUAGCC [Eternabot (L2) Solution 8] (Eterna round: R97, puzzle: Brourd's mod of Exclusion 4)	25.7	41.3				
GACUGUCGAGAGGAUAUCUUUCCCAAGCGGGUCAGAGAAGGCUUGACAUGAGGAUCACCCAUGUUGAUUGCUAG [EX6 C.23] (Eterna round: R97, puzzle: Exclusion 6)	389	140				

Sequence	apparent KD of MS2 coat protein (input ligand: FMN 200 uM) [nM]	apparent KD of MS2 coat protein (input ligand: none) [nM]	apparent KD of MS2 coat protein [1] [nM]	apparent KD of MS2 coat protein [2] [nM]	apparent KD of MS2 coat protein [3] [nM]	apparent KD of MS2 coat protein [4] [nM]
GAGAAAUUAUAGGAUAUCGUAUGGAUAAUUUAACGAGAAGGAUGAACAUGAGGAUCACCCAUGUGGUAUCAUGG [JL-ex6-3.13] (puzzle: Exclusion 6)				262	327	331
GAGAAUUUAUAGGAUAUCGUAUGCAUAAUUUAACGAGAAGGAUGAACAUGAGGAUCACCCAUGUGGUAUCAUGG [salish99_ex6_r3_001] (puzzle: Exclusion 6)				88.9	192	122
GAGCAGCCGAUAGGAUAUUCCGAGCUAAAGAGCAGUAGGACAUGAGGAUCACCCAUGUGUGCAUGGAAGAAGGGUCACUUCCAG [Eternabot solution 23] (Eterna round: R96, puzzle: Exclusion NG 2)	25.8	30.7	24.2			
GAGGAGCAAGGAUAUACGAGGAGAGGGAAGAGAGGAGAGAGACAUGAGGAUCACCCAUGUAGAAGGUGCAAGGA [JR_Exclu2_Sub092] (puzzle: Exclusion 2)				46	35.4	43.8
GAGGGAGGAGGAUAUUCCUUCGAGAACAUGAGGAUCACCCAUGUGUUAUAUCGAAAGCCCGAAGAAGGCCUCGCUA [Eternabot (Original) Solution 50] (Eterna round: R97, puzzle: Exclusion 5)	17.5	20.2				
GAGGUGUUAGGAUAUCGGAGAUGGAGAAGAACGGGAAGAGGCGAGAAGGAACAUGAGGAUCACCCAUGUAGGUG [JR_Exclu4_Sub029] (puzzle: Exclusion 4)					357	
GAGUAGGUAGGAUAUACGAUAAUAUAGGGUAGAUAUAUAACACAUGAGGAUCACCCAUGUAGAAGGACCAUGAG [Mat - Exclusion 2 - Mod of my Tesla design - D62] (puzzle: Exclusion 2)				118	37.1	35.1
GAGUGCUGAGGAUAUACAUGAGGAUCACCCAUGUACUUCAGCUAGGAGACUAGCAUUGGUAGAAGGCAGUACUC [Mod of lroppy 22 - Jieux - Exclusion 3] (Eterna round: R97, puzzle: Exclusion 3)	20.7	14.2				
GAUAAGGUAGGAUAUACGAAUAAAUAGGGUAGAAUAAUAACACAUGAGGAUCACCCAUGUAGAAGGACCAAUAG [Mat - Exclusion 2 - Mod of my Tesla design - D26] (puzzle: Exclusion 2)				38.9	25.6	26.3
GAUAAUGAAGGAUAUACAGGCGGUCCGUGACUAGUCUUCAUACAUGAGGAUCACCCAUGUAGAAGGUCAAUGUU [Eternabot (L1) Solution 64] (Eterna round: R97, puzzle: Exclusion 2)	23.3	14.4				
GAUACACAUGAGGAUCACCCAUGUGAGGAUAUGCGUACGUUGUCCGUAGGCGACGUGCGCAGAAGGCGCGAGGU [Mat - Mod of JL D92] (puzzle: Exclusion 1)					31.8	
GAUAGAGCAGGAUAUCGAGAUCCGCACAUGAGGAUCACCCAUGUUCGGUCGAAAGACCGACGAGAAGGGCUGUAUC [Omei Ex5 E7] (Eterna round: R97, puzzle: Exclusion 5)	838	4190				
GAUCAACAUGAGGAUCACCCAUGUCAGGAUAUGAUACUAUGUACUUCGGUACAUAGUAUCAGAAGGGACAGAUC [Ex1-3: 1] (puzzle: Exclusion 1)					101	
GAUCGACAUGAGGAUCACCCAUGUCAGGAUAUCGUCACUGGAGCUUCGGCUCCAGUGACGAGAAGGGAUAUAAU [E1/16-A1] (Eterna round: R97, puzzle: Exclusion 1)	26.3	36.1				
GAUGAGAGAGGAUAUACAUGAGGAUCACCCAUGUAAUUUUCGGACAUGGAAGCUGGAUGUAGAAGGCUCGCAUG [Leritete] (puzzle: Exclusion 3)					19.6	
GAUGCCAGAGGAUAUGCAUCGGGUUCCUGGUUAAGGCUGCCACAUGAGGAUCACCCAUGUAGAAGGCUGCCGUC [EX2 B.5] (Eterna round: R97, puzzle: Exclusion 2)	17.4	9.94				
GAUGGACAUGAGGAUCACCCAUGUAAGGAUAUACGGUUGGUAGAGAGAGAGAGGAAUGGUAGAAGGUACGGAGG [JR_Exclu1_Sub052] (puzzle: Exclusion 1)				38.7	43.1	55.9
